Experimental data: the supplement of paper PMC10567573
± gives the standard deviation.

Experiment: protein stability index of a GFP-peptide fusion (GPS, HEK-293T) (PSI 1-6); higher = more stable
[1] = treatment: DMSO, c terminus: a fixed tail appended
[2] = treatment: MLN4924 1 uM, 8 h, c terminus: a fixed tail appended
[3] = treatment: DMSO, c terminus: native
[4] = treatment: MLN4924 1 uM, 8 h, c terminus: native
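Further: 24-mer peptide tiles fused after GFP, lentivirally expressed, FACS-sorted into six equal bins by GFP/DsRed ratio, decoded by Illumina sequencing, PSI is the read-weighted mean bin number.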

Sequence | protein stability index [1] | protein stability index [2] | protein stability index [3] | protein stability index [4]
EGGEVRFNGKGKKIRKPRTIYCSL [DLX1] | 2.92 ± 0.1 | 3.39 ± 0.26 |  | 
EGSLEWDILEVKRLLDHQDNILSL [WDR41] | 2.42 ± 0.2 | 2.53 ± 0.21 |  | 
EGVATYAAAVLFRMSEDKPQDYKK [CTNNB1] | 3.45 ± 0.17 | 3.46 ± 0.21 |  | 
EHICVNNGNSYICKCSEGFVLAED [MATN2] | 4.61 ± 0.15 | 4.26 ± 0.53 |  | 
EIELQAQHNLRDSLENTLTESEAH [KRT34] | 5.3 ± 0.27 | 5.18 ± 0.16 |  | 
EIIELLILSGARVNAKDNMWLTPL [ANKRD44] | 3.16 ± 0.2 | 3.3 ± 0.72 |  | 
EITTLRQVLSAKERHLVEIKQKLG [TPD52L1] | 2.97 ± 0.57 | 3.16 ± 0.12 |  | 
EKNFFPEYNYDWWEKKPFSEDVNW [CHGB] | 2.78 ± 0.54 | 2.76 ± 0.47 |  | 
EKPRVPAFACQVAGCCQVFDALDD [ZNF511] | 3.94 ± 0.22 | 3.99 ± 0.092 |  | 
EKQADFLDKQMSRDEHRARAMKIP [NFE2L1] | 4.46 ± 0.16 | 4.58 ± 0.12 |  | 
EKRERALEEVERAILEMKWKVRAE [ZBED2] | 3.77 ± 0.27 | 3.74 ± 0.53 |  | 
EKRGCPRTALEYCKLILSLEPDED [TCF25] | 3.37 ± 0.17 | 3.42 ± 0.097 |  | 
ELDILPIHPPSGNSDLDPDAQNPM [BTBD10] | 5.45 ± 0.16 | 5.38 ± 0.16 |  | 
ELFIEISRRIPSTDANLPSGGKGF [RAB22A] | 2.36 ± 0.33 | 2.14 ± 0.34 |  | 
ELIGDYSKAFLLQTVDGKHQDLKY [CDC25B] | 2.41 ± 0.18 | 2.51 ± 0.29 |  | 
ELLVYIVFLVDICLLTYGMTSSSA [PKD2L1] | 3.19 ± 0.45 | 2.93 ± 0.67 |  | 
ELLWKLQTGDPTSPIKLSPTSPVY [MTUS2] | 2.3 ± 0.32 | 2.36 ± 0.16 |  | 
ELSNILNLSYKQVKTWFQNQRMKS [NANOGP8] | 2.63 ± 0.49 | 2.38 ± 0.43 |  | 
ELSTLRNLFKQLPEPLLASSGHC [CEBPB] |  |  | 2.12 ± 0.44 | 2.38 ± 0.14
ELVVRFFACPSKTDFFKNIMNFID [KCNA1] | 2.32 ± 0.58 | 2.33 ± 0.52 |  | 
ELVYADDYIMDEDQSKLAGLLDLN [ESRRG] | 3.48 ± 0.21 | 3.68 ± 0.21 |  | 
EMLTGQERVALANRKRECGNAHYQ [FKBP8] | 3.71 ± 0.23 | 3.86 ± 0.27 |  | 
ENMVTVGFFSCMGTLCIGAAAFSQ [KCNK9] | 3.39 ± 0.5 | 2.91 ± 0.16 |  | 

Sequence | protein stability index [1] | protein stability index [2] | protein stability index [3] | protein stability index [4]
EPAPGSALSPAGVCGGAQRPGHLP [CDC25B] | 4.6 ± 0.15 | 4.49 ± 0.21 |  | 
EPATPEEGEPATQRQDPAAAQEGE [GAGE1] | 5.62 ± 0.13 | 5.61 ± 0.19 |  | 
EPGTPSSSPDDKLLTSPRAINNLV [KLHL14] | 4.87 ± 0.16 | 4.91 ± 0.34 |  | 
EPQSEPVRVLDMVAKLESECLKRQ [FBXO34] | 4.88 ± 0.28 | 4.9 ± 0.054 |  | 
EQFHEAASKMESTIKPRRVEPVCS [CHCHD6] | 4.42 ± 0.31 | 4.61 ± 0.14 |  | 
ERAAAQARRELQAEREALQARLRD [ZBED3] | 5.27 ± 0.21 | 5.33 ± 0.22 |  | 
EREAEKEQKRLERLQRKLVEPKHC [SDE2] | 4.7 ± 0.17 | 4.82 ± 0.085 |  | 
EREEEDDALDSEGRDSEGPAEGEG [KCNG1] | 5.55 ± 0.29 | 5.74 ± 0.12 |  | 
ERLASANLRVLVDCILRDTSEDLR [TEKT4] | 2.21 ± 0.48 | 2.05 ± 0.15 |  | 
ERLKANDNLKFSQEYESIDPGQQF [PTPRD] | 4.21 ± 0.12 | 4.22 ± 0.16 |  | 
ERPWIKRMIFKLFSQETVMKFVPR [APMAP] | 2.71 ± 0.75 | 2.48 ± 1.1 |  | 
ESDPSDPNKDMVVQLIDDFKISGM [SRPK2] | 4.82 ± 0.3 | 4.8 ± 0.26 |  | 
ESKVREATNDDPWGPSGQLMGEIA [CLINT1] | 4.7 ± 0.12 | 4.78 ± 0.096 |  | 
ESSSPARGIAIVSVLVILISIVIF [KCNA4] | 3.13 ± 0.59 | 2.9 ± 0.33 |  | 
ESTLYPNPYHQPYISRKYFATRPG [TPRG1] | 2.76 ± 0.43 | 3.03 ± 0.088 |  | 
ESVADLLALEEPVDYKQSVLNVAG [SLC6A17] | 4.43 ± 0.1 | 4.58 ± 0.24 |  | 
ETLLGDPEKRTQYFDPLRNEYFFD [KCNA4] | 2.91 ± 0.48 | 3.81 ± 0.9 |  | 
ETPGCATLLPASLFVNSHPGIDRP [DCAF4] | 3.61 ± 0.3 | 3.75 ± 0.1 |  | 
ETQKLLCKNGETLLGAVNFFVSSI [ARFIP2] | 2.49 ± 0.52 | 2.25 ± 0.36 |  | 
ETVYAAYLPKNTHPFLYLSLEISP [MLH1] | 2.82 ± 0.51 |  |  | 
EVAAQLPAVRQLLPCARVQICRAQ [ZSWIM9] | 2.42 ± 0.23 | 2.77 ± 0.35 |  | 
EVHVPPSSAVSGVKEWFGLGGEQA [MIA2] | 4.31 ± 0.22 | 4.29 ± 0.44 |  | 
EVPLEVLRQRESKWLDMLNNWDKW [TBC1D10A] | 2.8 ± 0.18 | 3.17 ± 0.49 |  | 

Sequence | protein stability index [1] | protein stability index [2] | protein stability index [3] | protein stability index [4]
EVTVQRNCCLTLCNFSIPEELEFQ [ZER1] | 2.68 ± 0.26 | 2.59 ± 0.42 |  | 
EVWGNALLRPPVAAFVRAQADLLA [DNAAF3] | 2.39 ± 0.31 | 2.02 ± 0.37 |  | 
EYEGGHIKTAVNLPLERDAESFLL [CDC25B] | 3.91 ± 0.16 | 3.97 ± 0.21 |  | 
EYRQRRERNNIAVRKSRDKAKRRN [CEBPD] | 4.42 ± 0.36 | 4.426 ± 0.023 |  | 
FALQGLPLNCAPCPRRSEPVVQCQ [IRX6] | 2.7 ± 0.16 | 2.79 ± 0.28 |  | 
FAPLWEVFRVSSDKLALCHLELTR [FCHO1] | 2.68 ± 0.36 | 2.52 ± 0.29 |  | 
FAQADALKGTLVSTLKEVKPTVFI [ACSBG2] | 2.4 ± 0.52 | 3.04 ± 0.86 |  | 
FEPPAPGEGNSSQNSRNKRAVQGP [TNFSF13B] | 5.3 ± 0.17 | 5.45 ± 0.2 |  | 
FEYRGEQHKTCMLNATSKFMEFYQ [EDNRA] | 2.08 ± 0.36 | 1.89 ± 0.32 |  | 
FGEDGIFRHDRLRFRDFVDALEDS [PBXIP1] | 3.29 ± 0.32 | 3.58 ± 0.46 |  | 
FGLSILWVLLFTPCSFVCWYRPMY [SCAMP3] | 2.97 ± 0.37 | 3.48 ± 0.32 |  | 
FGNSEKPETMTCRLSNNQRYLFLD [ZFYVE21] | 2.44 ± 0.42 | 2.1 ± 0.54 |  | 
FHEVGTEMIITKAGRRMFPSYKVK [TBX5] | 2.35 ± 0.35 | 2.72 ± 0.33 |  | 
FHRSQTLSYRNGYAIVRRPTVGIG [EFHC1] | 2.44 ± 0.39 | 2.54 ± 0.22 |  | 
FHYVDILALLPAAWEDSHGSQDGH [SCNN1D] | 2.26 ± 0.56 | 2.13 ± 0.25 |  | 
FKLADPDEVARRWGKRKNKPKMNY [ETS2] | 3.48 ± 0.48 | 3.67 ± 0.13 |  | 
FKSLDKKNDGRIDAQEIMQSLRDL [SLC25A25] | 4 ± 0.2 | 3.92 ± 0.34 |  | 
FLPSLRPPPLTSPSHGSLSHSKAP [NCF4] | 3.45 ± 0.13 | 3.63 ± 0.14 |  | 
FNAGIQQAFQLPKLGALLSRCRKL [ZBED1] | 2.63 ± 0.31 | 2.63 ± 0.29 |  | 
FNMLHDNSKPCISLNGPLSTSRHV [ADAMTS4] | 3.21 ± 0.22 | 3.26 ± 0.25 |  | 
FPNQKSEAAEPPKTPPSSCDSTNA [KMT5A] | 5.52 ± 0.13 | 5.53 ± 0.2 |  | 
FPYFRSDRDKRDFVSAGAAAGVAA [CLCN6] | 3.63 ± 0.45 | 3.82 ± 0.23 |  | 
FQEAQIKRKARNEGRNRRRQQVLP [CDKL4] | 3.79 ± 0.54 | 4.08 ± 0.14 |  | 

Sequence | protein stability index [1] | protein stability index [2] | protein stability index [3] | protein stability index [4]
FQPQPVQPQQGYIPPMAQPGLPPV [ZNF207] | 3.5 ± 0.31 | 3.74 ± 0.26 |  | 
FQSHEPEFDYLKSLEIEEKINKIR [PPP2R2B] | 3.26 ± 0.36 | 3.56 ± 0.31 |  | 
FSLTHTHTHTPNHRGINCFFPEL [ANKRD44] |  |  | 2.54 ± 0.56 | 2.76 ± 0.57
FSLVLVLDLSKPNDLWPTMENLLQ [DYNC2LI1] | 2.67 ± 0.51 | 2.72 ± 0.41 |  | 
FSSQKLKCLSMFPHYICTLKQPHL [PNLIPRP1] | 2.66 ± 0.57 | 2.17 ± 0.35 |  | 
FTCDEENVFAAVGRGLYVYSLQMK [WDR41] | 2.57 ± 0.56 | 2.38 ± 0.093 |  | 
FTELRLLLDEEEALAKKFIDKNTQ [TRIM14] | 2.68 ± 0.53 | 3.44 ± 0.93 |  | 
FTRNEFNLESKSTIGVEFATRSIQ [RAB11A] | 2.97 ± 0.3 | 3.2 ± 0.21 |  | 
FTVNPKPRVEYIDRPRCCLRGKEC [BTBD1] | 2.92 ± 0.11 | 3.23 ± 0.35 |  | 
FVLSCSYDGLDCQARQFRTFHHPT [SCNN1D] | 2.62 ± 0.74 | 2.63 ± 0.58 |  | 
FVSFFNKWDAENAIQQMGGQWLGG [TIA1] | 2.69 ± 0.78 | 2.1 ± 0.59 |  | 
FVTYVFFVFFVLLNMFLAIINDTY [PKD2L1] | 2.3 ± 0.47 | 2.26 ± 0.45 |  | 
FYHCSNDDEGDSYSDNPCSCSQSH [SPRY1] | 4.28 ± 0.076 | 4.31 ± 0.25 |  | 
FYKRRGASDLSSEEGWRLFKIDKE [SAT1] | 3.32 ± 0.21 | 3.62 ± 0.49 |  | 
GAGHCSASPGPAAPTARMPGRLRG | 4.82 ± 0.34 | 4.78 ± 0.25 |  | 
GAQELLEFTIRDLQRLGELQSELA [INTS4] | 2.54 ± 0.36 | 2.79 ± 0.29 |  | 
GAQGSGGGSTSAHYAVNSQFTMGG [CARM1] | 3.92 ± 0.34 | 4.23 ± 0.2 |  | 
GAQIWCGEGVDKLSLPARNQAGYF [ALDH8A1] | 2.47 ± 0.27 | 2.65 ± 0.37 |  | 
GARQQQVTTYLHKDYNNLWIIKKH [POMT2] | 2.49 ± 0.27 | 2.58 ± 0.35 |  | 
GATTLGDMIYVSGGFDGSRRHTSM [KLHL12] | 2.88 ± 0.38 | 3.02 ± 0.5 |  | 
